Results as given in US20220195067A1 (LAMKAP BIO BETA, published 2022).

How the values were obtained:
[1] = target: T1, human CEACAM5 on CEACAM5-expressing cancer cell lines (human, UniProt P06731 35-685); assay: flow cytometry on MKN-45 cells, K2AC100 directly labeled with a fluorochrome, no competitor
T1 construct: whole, on cells; also called CEACAM5 on SK-CO-1, MKN-45, HPAF-II, SNU-C1, Ls174T, LoVo cells
T1 sequence (looked up): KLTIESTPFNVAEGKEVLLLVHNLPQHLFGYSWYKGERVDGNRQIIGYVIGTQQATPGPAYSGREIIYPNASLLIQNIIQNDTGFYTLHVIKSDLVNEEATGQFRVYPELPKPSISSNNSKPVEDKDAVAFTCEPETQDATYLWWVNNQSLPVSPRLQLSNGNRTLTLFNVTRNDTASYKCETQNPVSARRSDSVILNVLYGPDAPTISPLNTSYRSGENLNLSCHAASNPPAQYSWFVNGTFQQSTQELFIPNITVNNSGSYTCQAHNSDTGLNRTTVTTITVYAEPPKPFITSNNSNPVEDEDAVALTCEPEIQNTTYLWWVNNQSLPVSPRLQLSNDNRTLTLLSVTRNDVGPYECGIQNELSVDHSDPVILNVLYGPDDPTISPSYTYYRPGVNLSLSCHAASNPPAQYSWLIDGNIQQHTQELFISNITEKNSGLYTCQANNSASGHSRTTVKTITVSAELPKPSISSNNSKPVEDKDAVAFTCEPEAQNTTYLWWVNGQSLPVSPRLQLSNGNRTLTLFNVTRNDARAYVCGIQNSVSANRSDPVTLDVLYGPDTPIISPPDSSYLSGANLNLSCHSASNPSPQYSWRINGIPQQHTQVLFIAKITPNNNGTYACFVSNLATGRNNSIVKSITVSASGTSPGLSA
Procedure: (§1) A binding assay to cells expressing CEACAM5 was performed as described in Example 6. […] An antibody was regarded as non-competitive if 300 nM of the antibody shifts the binding curve of a bispecific antibody of the invention by less than a factor of 3.
(§2) In this experiment, the concentration-dependent binding of CD47×CEACAM5 bispecific antibody K2AC100 was measured in the presence of an anti-CEACAM5 mAbs, either TCB2014 or TCB 2017. This binding was measured at the cell surface of CEACAM5-expressing MKN-45 cells. K2AC100 was directly labeled with a fluorochrome to follow its binding on MKN-45 cells alone (dark line, dark circles), in presence of 300 nM of TCB2014 (dark line, dark triangles) or 30 nM of TCB2017 (dark line, black diamonds). Negative controls (Ctrl) were used (IgG1 in presence of TCB2014 or TCB2017). […] Therefore, the K2AC100 antibody is non-competitive with the TCB2014 and TCB2017 antibodies with respect to CEACAM5 binding.

[2] = target: T1, human CEACAM5 on CEACAM5-expressing …; assay: flow cytometry on MKN-45 cells, K2AC100 directly labeled with a fluorochrome, in presence of 300 nM TCB2014
Procedure: as §1, §2

[3] = target: T1, human CEACAM5 on CEACAM5-expressing …; assay: flow cytometry on MKN-45 cells, K2AC100 directly labeled with a fluorochrome, in presence of 30 nM TCB2017
Procedure: as §1, §2

Measured: EC50 (read off the curve)

B1: K2AC100 (bispecific antibody, human IgG1, kappa, lambda)
heavy: not shown
light 1: QSVLTQPPSVSAAPGQKVTISCSGSSSNIGYGLVSWYQQLPGTAPKLLIYNGNIRPSGIPDRFSGSKSGTSATLGITGLQTGDEADYYCGTWDFSYRVDFGGGTKLTVLGQPKAAPSVTLFPPSSEELQANKATLVCLISDFYPGAVTVAWKADSSPVKAGVETTTPSKQSNNKYAASSYLSLTPEQWKSHRSYSCQVTHEGSTVEKTVAPTECS
light 2: not shown
notes: Kappa-lambda body; also called CD47xCEACAM5 bispecific antibody K2AC100; AC100 (CEACAM5 arm)
~2 µg/mL: all assays above
